Assay results as given in IntAct's records for PubMed 29039417.

B1: BBSome complex member BBS2 (Homo sapiens), Q9BXC9 (parent)
chain: MLLPVFTLKLRHKISPRMVAIGRYDGTHPCLAAATQTGKVFIHNPHTRNQHVSASRVFQSPLESDVSLLSINQAVSCLTAGVLNPELGYDALLVGTQTNLLAYDVYNNSDLFYREVADGANAIVLGTLGDISSPLAIIGGNCALQGFNHEGSDLFWTVTGDNVNSLALCDFDGDGKKELLVGSEDFDIRVFKEDEIVAEMTETEIVTSLCPMYGSRFGYALSNGTVGVYDKTSRYWRIKSKNHAMSIHAFDLNSDGVNELITGWSNGKVDARSDRTGEVIFKDNFSSAIAGVVEGDYRMDGHIQLICCSVDGEIRGYLPGTAEMRGNLMDTSAEQDLIRELSQKKQNLLLELRNYEENAKAELASPLNEADGHRGIIPANTRLHTTLSVSLGNETQTAHTELRISTSNDTIIRAVLIFAEGIFTGESHVVHPSIHNLSSSICIPIVPPKDVPVDLHLKAFVGYRSSTQFHVFESTRQLPRFSMYALTSLDPASEPISYVNFTIAERAQRVVVWLGQNFLLPEDTHIQNAPFQVCFTSLRNGGHLHIKIKLSGEITINTDDIDLAGDIIQSMASFFAIEDLQVEADFPVYFEELRKVLVKVDEYHSVHQKLSADMADHSNLIRSLLVGAEDARLMRDMKTMKSRYMELYDLNRDLLNGYKIRCNNHTELLGNLKAVNQAIQRAGRLRVGKPKNQVITACRDAIRSNNINTLFKIMRVGTASS
partner: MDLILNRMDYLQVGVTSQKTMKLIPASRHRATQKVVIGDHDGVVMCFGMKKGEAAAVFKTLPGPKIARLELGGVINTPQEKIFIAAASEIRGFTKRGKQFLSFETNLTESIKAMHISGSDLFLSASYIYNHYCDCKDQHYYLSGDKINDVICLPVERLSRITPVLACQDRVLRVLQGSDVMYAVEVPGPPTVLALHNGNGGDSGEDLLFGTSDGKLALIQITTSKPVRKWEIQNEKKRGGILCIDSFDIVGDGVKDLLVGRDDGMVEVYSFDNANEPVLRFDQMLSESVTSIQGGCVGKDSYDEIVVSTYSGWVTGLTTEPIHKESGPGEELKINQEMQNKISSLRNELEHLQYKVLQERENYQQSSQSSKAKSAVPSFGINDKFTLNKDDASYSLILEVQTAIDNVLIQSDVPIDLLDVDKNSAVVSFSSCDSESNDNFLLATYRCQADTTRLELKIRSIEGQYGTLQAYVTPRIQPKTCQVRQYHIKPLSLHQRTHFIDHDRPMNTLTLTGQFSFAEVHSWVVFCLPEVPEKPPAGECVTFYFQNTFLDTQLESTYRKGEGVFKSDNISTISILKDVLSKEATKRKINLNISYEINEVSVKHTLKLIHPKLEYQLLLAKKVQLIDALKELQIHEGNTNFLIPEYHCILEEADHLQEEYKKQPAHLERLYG

Variants of: B1
Conditions: with BBS7, Q8IWZ6-2

Row | Variant | effect of a mutation on the interaction
1 | S388A | with no effect
2 | E369A | with no effect
3 | E369K | with no effect
4 | L387E | with no effect
5 | L387K | disrupting interaction strength
6 | L387A | with no effect
7 | F418K | with no effect
8 | F418E | with no effect
9 | F418A | with no effect
10 | L367E | with no effect
11 | L367K | with no effect
12 | L367A | with no effect
13 | H384A | with no effect
14 | H384K | with no effect
15 | H384E | with no effect
16 | H384P | disrupting interaction strength
17 | I377A | with no effect
18 | I377E | with no effect
19 | I377R | disrupting interaction strength
20 | I377K | with no effect
21 | F423K | with no effect
22 | F423E | with no effect
23 | F423A | with no effect

Row | Variant | effect of a mutation on the interaction
24 | I376K | with no effect
25 | I376E | with no effect
26 | I376F | disrupting interaction strength
27 | I376A | with no effect
28 | P378E | with no effect
29 | P378K | with no effect
30 | P378A | with no effect
31 | T410K | with no effect
32 | T410A | with no effect
33 | T410E | with no effect
34 | I412E | with no effect
35 | I412A | with no effect
36 | I412R | disrupting interaction strength
37 | I412K | with no effect
38 | T424A | with no effect
39 | T424E | with no effect
40 | R403A | with no effect
41 | R403K | with no effect
42 | R403E | with no effect
43 | L416K | with no effect
44 | L416E | with no effect
45 | L416A | with no effect
46 | N380K | with no effect

Row | Variant | effect of a mutation on the interaction
47 | N380E | disrupting interaction strength
48 | N380A | with no effect
49 | I411E | with no effect
50 | I411K | with no effect
51 | I411A | with no effect
52 | E401A | with no effect
53 | E401K | with no effect
54 | R413K | with no effect
55 | R413E | with no effect
56 | R413A | with no effect
57 | G392E | with no effect
58 | G392A | with no effect
59 | G392K | with no effect
60 | V415A | with no effect
61 | V415E | with no effect
62 | V415K | with no effect
63 | R382E | with no effect
64 | R382A | with no effect
65 | R382K | with no effect
66 | G421E | with no effect
67 | G421K | with no effect
68 | G421A | with no effect
69 | T400K | with no effect

Row | Variant | effect of a mutation on the interaction
70 | T400E | with no effect
71 | T400A | with no effect
72 | A398E | with no effect
73 | A398K | with no effect
74 | T397K | with no effect
75 | T397A | with no effect
76 | T397E | with no effect
77 | L383A | disrupting interaction strength
78 | L383K | with no effect
79 | L383E | disrupting interaction strength
80 | A364E | with no effect
81 | A364K | with no effect
82 | R374A | with no effect
83 | R374E | with no effect
84 | R374K | with no effect
85 | S390E | with no effect
86 | S390A | with no effect
87 | S390K | with no effect
88 | D409E | with no effect
89 | D409A | with no effect
90 | D409K | with no effect
